Here are results for 3 molecules from patent US20230364014A1, “SELF-ASSEMBLED GELS FOR CONTROLLED DELIVERY OF BIOLOGICS AND METHODS OF MAKING THEREOF” (Alivio Therapeutics, Inc., priority 2018, published 2023).

As usually defined, the pKa is the pH at which an ionisable group is half protonated.

Data set [1] is described as follows: Time-dependent loading of antibody into ascorbyl palmitate microfibers (HPLC). The class given is physicochemical. The method, then: The efficiency of antibody (i.e., IFX or ADA) loading into ascorbyl palmitate microfibers was found be time dependent. […] (and following 3 washes with PBS by centrifugation at 5000 rpm for 10 mins at 4° C.). However, by extending the loading/incubation time to 20 hours (2 hours at 22° C., 18 hours at 4° C.), the loading increased to 14% (wt/wt %).

Data set [2] is described as follows: pKa / isoelectric point and pH-dependent loading into AP microfiber suspensions. Type of data set: physicochemical. To be noted: FIG. 4. An excerpt: Agent loading level can also be pH and/or charge-dependent and loading of the agent(s) may be controlled and/or optimized based using the pKa and isoelectric (pI) point of the agent. […] Accordingly, agent loading and encapsulation efficiency may be optimized/maximized by loading gel suspensions at a pH above the pKa of the gelator(s) and a pH which is below the isoelectric (pI) point of the agent(s) which are being loaded onto the gel.

Data set [3] concerns the target T1, TNF-α (Homo sapiens, UniProt P01375).
T1 construct: host or cells: added to murine fibroblast L929 cells
The data set is described as follows: TNF-α activity assay with fibroblast L929 cells (L929 viability assay). The class given is cell-based. To be noted: 1 ng/mL TNF-α in 2% serum, compared to IFX and ADA controls, FIG. 2. The method, then: Activity was measured using the TNF-α activity assay with fibroblast L929 cells (Gibco cytotoxicity assay for recombinant proteins).

Data set [4] in a line: Encapsulation efficiency in self-assembled AP microfibers versus non-assembled AP powder suspension (Coomassie Assay). The class given is physicochemical. To be noted: 10 mg/mL AP mixed with equal volume of 2 mg/mL mAb in PBS, 22° C. for 2 hours, FIG. 5. The method, then: Ascorbyl palmitate (AP) microfiber suspensions were prepared using the self-assembly process described in Example 1 or, alternatively, using a non-assembled AP particulate used as-is from the manufacturer (USP grade ascorbyl palmitate, Sigma-Aldrich). […] After loading/incubation at 22° C. for 2 hours, the suspensions were centrifuged at 20,000×g for 10 minutes at 4° C. The supernatant was then removed and tested for soluble protein via the Coomassie Assay to determine the encapsulation efficiency.

For data set [5] the following is noted: cited from earlier work.

T1 sequence (P01375 77-233 limits assumed): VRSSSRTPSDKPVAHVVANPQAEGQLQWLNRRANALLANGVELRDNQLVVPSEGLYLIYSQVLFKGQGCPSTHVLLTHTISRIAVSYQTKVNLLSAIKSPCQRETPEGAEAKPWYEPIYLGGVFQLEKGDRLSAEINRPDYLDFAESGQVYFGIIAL

For the molecule infliximab [IFX], the loading in data set [1] (after 10 minutes of loading/incubation at 22° C., following 3 washes with PBS) is on record as 7 % (wt/wt %); in data set [1] (loading/incubation time 20 hours (2 hours at 22° C., 18 hours at 4° C.)), 14 % (wt/wt %). The theoretical maximum loading entry in data set [1] (calculated from amounts of IFX and AP combined during loading) is given as “approximately 16.7 % (wt/wt %)”.

As for adalimumab, in data set [2], the “influence of pH on loading and encapsulation efficiency” value was “highest loading and encapsulation efficiencies are observed at a pH above the pKa of AP but below the pI”. For the same molecule, the “activity of mAb released from gels against TNF-α” value in data set [3] is reported as “active against TNF-α”. Moreover, the “encapsulation of antibody, self-assembled AP microfiber suspension relative to non-self-assembled AP powder suspension” value in data set [4] is recorded as “greater encapsulation”.

Regarding `CCCCCCCCCCCCCCCC(=O)OC[C@H](O)[C@H]1OC(=O)C(O)=C1O` [AP, ascorbyl palmitate], the pKa in data set [5] is given as 4.4.
